# Assay results taken from article PMC9367177 (iScience, 2022).
# Molecular target: T1, SARS-CoV-2 RBD (Wuhan-1) (SARS-CoV-2, Wuhan-1, UniProt P0DTC2)
# T1 construct: source: Expi293, transfected, purified (Ni-NTA, SEC)
# Assay: SPR
# Settings: both partners purified
Binder,Kd,koff,kon
"eCC6.30.9 (antibody, V domains shown, copies: 2 + 2) VH: QVQLVQSGAEVKKPGSSVKVSCKASGGIFSIYAITWVRQAPGQGLEWMGAIIPIIGTANYAQKFQGRVTITADKSTSTAYMELSSLRSEDTAVYYCARDFRYCSSTRCYFNFDPWGQGTLVTVSS VL: DIQMTQSPSSLSASVGDRVTITCRASQSISNYLNWYQQEAGKAPKLLIYTASSLQSGVPSRFSGSGSGTDFTLTISSLQPEDFATYYCQQSYSTPRTFGQGTKVDIK",0.0788 nM,0.000202 s⁻¹,2.57e+06 M⁻¹ s⁻¹
"eCC6.33.5 (antibody, V domains shown, copies: 2 + 2) VH: QVQLVQSGAEVKKPGSSVKVSCKAVGGTFSSSAIYWVRQAPGQGLEWMGGIIPILDIANYAQKFQGRVTITADKSTSTAFMELSSLRSEDTAVYYCALRNQWDLVVYWGQGTLVTVSS VL: EIVLTQSPGTLSLSPGERATLSCHASQSVSSSYLAWYQQKPGQAPRLLIYGAESRATGIPDRFSGSGSGTDFTLTISRLEPEDFAVYYCQHYGSSTWTFGQGTKLEIK",17.3 nM,0.00411 s⁻¹,237000 M⁻¹ s⁻¹
"eCC6.33.9 (antibody, V domains shown, copies: 2 + 2) VH: QVQLVQSGAEVKKPGSSVKVSCKSSGGTFSSSAYSWVRQAPGQGLEWMGTIIPILDITNYAQKFQGRVTITADKSTSTAFMELSSLRSEDTAVYYCAQRNQWDLIVYWGQGTLVTVSS VL: EIVLTQSPGTLSLSPGERATLSCRASQWVSSSYIAWYQQKPGQAPRLLIYGAESRATGIPDRFSGSGSGTDFTLTISRLEPEDFAVYYCQHYGSSSWTFGQGTKLEIK",14.3 nM,0.00218 s⁻¹,153000 M⁻¹ s⁻¹
"eCC6.33.6 (antibody, V domains shown, copies: 2 + 2) VH: QVQLVQSGAEVKKPGSSVKVSCKAPGGTFSSSAISWVRQAPGQGLEWMGGIIPILDITTYAQKFQGRVTITADKSTSTAFMELSSLRSEDTAVYYCALRNQWDLLIYWGQGTLVTVSS VL: EIVLTQSPGTLSLSPGERATLSCRASQSVSSHYLAWYQQKPGQAPRLLIYGASSRYTGIPDRFSGSGSGTDFTLTISRLEPEDFAVYYCQHYGSSHWTFGQGTKLEIK",13.3 nM,0.00167 s⁻¹,126000 M⁻¹ s⁻¹
